Where two headings read alike, the source gives them in different places.
Columns and labels:
[1] = molecular target: T1, 3-methylaspartate ammonia lyase (CaMAL) (Citrobacter amalonaticus, UniProt O66145); assay: steady-state inhibition kinetics of 3-methylaspartate deamination (UV assay); type: biochemical
T1 construct: C-terminal His-tag

[2] = substrate: C[C@H](C(=O)O)[C@H](N)C(=O)O; assay: purified protein; type: biochemical, Citrobacter amalonaticus; conditions: Mg2+ catalytic pocket; pH 9.0; 30.0 °C
[3] = substrate: C[C@H](C(=O)O)[C@H](N)C(=O)O; assay: purified protein; type: biochemical, Carboxydothermus hydrogenoformans; conditions: Mg2+; pH 9.0; 30.0 °C
[4] = substrate: C[C@H](C(=O)O)[C@H](N)C(=O)O; assay: purified protein; type: biochemical, Clostridium tetanomorphum; conditions: Mg2+; pH 9.0; 30.0 °C
[5] = substrate: N[C@@H](CC(=O)O)C(=O)O; assay: purified protein; type: biochemical, Clostridium tetanomorphum; conditions: Mg2+; pH 9.0; 30.0 °C

Molecule: NC(CC(=O)O)CC(=O)O [β-glutamic acid]
- Ki ([1]; read-out: Ki): 71 ± 3 mM

Molecule: NCCC[C@H](N)CC(=O)O [β-lysine]
- Ki [1]: 1.7 ± 0.4 mM

B1: 3-methylaspartate ammonia lyase (CaMAL) (Citrobacter amalonaticus) (protein)
chain: MKIKQALFTAGYSSFYFDDQQAIKNGAGHDGFIYTGDPVTPGFTSVRQAGECVSVQLILENGAVAVGDCAAVQYSGAGGRDPLFLAEHFIPFLNDHIKPLLEGRDVDAFLPNARFFDKLRIDGNLLHTAVRYGLSQALLDATALASGRLKTEVVCDEWQLPCVPEAIPLFGQSGDDRYIAVDKMILKGVDVLPHALINNVEEKLGFKGEKLREYVRWLSDRILSLRSSPRYHPTLHIDVYGTIGLIFDMDPVRCAEYIASLEKEAQGLPLYIEGPVDAGNKPDQIRMLTAITKELTRLGSGVKIVADEWCNTYQDIVDFTDAGSCHMVQIKTPDLGGIHNIVDAVLYCNKHGMEAYQGGTCNETEISARTCVHVALAARPMRMLIKPGMGFDEGLNIVFNEMNRTIALLQTKD
notes: C-terminal His-tag
- Km [2]: 1000 ± 60 µM
- kcat [2]: 17.6 ± 0.3 s⁻¹

B2: 3-methylaspartate ammonia lyase (ChMAL) (Carboxydothermus hydrogenoformans Z-2901) (protein)
chain: MRIKDVLFVKGSSGFYFDDQKAIKSGAVTDGFTYKGKPLTPGFSRVRQGGEAVSIMLFLENGEIAVGDCVAVQYSGVDGRDPVFLADNFIEVLEEEIKPRLVGYNLVRFREAARYFTNLTDKRGKRYHTALRYGLTQALLDAVAKINRTTMAEVIAEEYGLDLTLNPVPLFAQSGDDRYINADKMILKRVDVLPHGLFNHPAKTGEEGKNLTEYALWLKQRIKTLGDHDYLPVFHFDVYGTLGTVFNDNLDRIADYLARLEEKVAPHPLQIEGPVDLGSKERQIEGLKYLQEKLITLGSKVIIVADEWCNNLSDIKEFVDAGAGGMVQIKSPDLGGVNDIIEAVLYAKEKGTGAYLGGSCNETDVSAKITVHVGLATGPAQLLVKPGMGVDEGLTIMRNEMMRTLAILQRNKVTFQKKVG
notes: C-terminal His-tag
- Km [3]: 1380 ± 170 µM
- kcat [3]: 66 ± 2 s⁻¹

B3: 3-methylaspartate ammonia lyase (CtMAL) (Clostridium tetanomorphum) (protein)
chain: MKIVDVLCTPGLTGFYFDDQRAIKKGAGHDGFTYTGSTVTEGFTQVRQKGESISVLLVLEDGQVAHGDCAAVQYSGAGGRDPLFLAKDFIPVIEKEIAPKLIGREITNFKPMAEEFDKMTVNGNRLHTAIRYGITQAILDAVAKTRKVTMAEVIRDEYNPGAEINAVPVFAQSGDDRYDNVDKMIIKEADVLPHALINNVEEKLGLKGEKLLEYVKWLRDRIIKLRVREDYAPIFHIDVYGTIGAAFDVDIKAMADYIQTLAEAAKPFHLRIEGPMDVEDRQKQMEAMRDLRAELDGRGVDAELVADEWCNTVEDVKFFTDNKAGHMVQIKTPDLGGVNNIADAIMYCKANGMGAYCGGTCNETNRSAEVTTNIGMACGARQVLAKPGMGVDEGMMIVKNEMNRVLALVGRRK
notes: C-terminal His-tag
- Km [4]: 3990 ± 610 µM
- kcat [4]: 7.6 ± 0.4 s⁻¹
- Km [5]: 67000 ± 6000 µM
- kcat [5]: 1.6 ± 0.1 s⁻¹
